# Results from patent US20240301031A1 (JIANGSU HENGRUI PHARMACEUTICALS, published 2024).
# Residue numbers refer to the chain shown, from its start.
# B1: TACI-8 Fc (Fc fusion)
# chain: SLSCRKEQGKFYDHLLRDCISCASICGQHPKQCAYFCENKLRSPVNLPPELRKQRSGEVENNSDNSGKYQGLEHRGSEASPALPGLKLSADQVALVYSDKTHTCPPCPAPEAEGAPSVFLFPPKPKDTLMISRTPEVTCVVVDVSHEDPEVKFNWYVDGVEVHNAKTKPREEQYNSTYRVVSVLTVLHQDWLNGKEYKCKVSNKALPSSIEKTISKAKGQPREPQVYTLPPSRDELTKNQVSLTCLVKGFYPSDIAVEWESNGQPENNYKTTPPVLDSDGSFFLYSKLTVDKSRWQQGNVFSCSVMHEALHNHYTQKSLSLSPGK
# notes: two identical polypeptides
# B2: TACI-2 Fc (Fc fusion)
# chain: SGLGRSRKGGKSRVDQEERFPQGLWTGVAMRSCPEEQYWDPLLGTCMSCKTICNHQSQRTCAAFCRSLSCRKEQGKFYDHLLRDCISCASICGQHPKQCAYFCENKLRSPVNLPPELRKQRSGEVENNSDNSGDKTHTCPPCPAPEAEGAPSVFLFPPKPKDTLMISRTPEVTCVVVDVSHEDPEVKFNWYVDGVEVHNAKTKPREEQYNSTYRVVSVLTVLHQDWLNGKEYKCKVSNKALPSSIEKTISKAKGQPREPQVYTLPPSRDELTKNQVSLTCLVKGFYPSDIAVEWESNGQPENNYKTTPPVLDSDGSFFLYSKLTVDKSRWQQGNVFSCSVMHEALHNHYTQKSLSLSPGK
# notes: two identical polypeptides
# B3: TACI-1 Fc (Fc fusion)
# chain: SGLGRSRKGGKSRVDQEERFPQGLWTGVAMRSCPEEQYWDPLLGTCMSCKTICNHQSQRTCAAFCRSLSCRKEQGKFYDHLLRDCISCASICGQHPKQCAYFCENKLRSPVNLPPELRKQRSGEVEQNSDNSGKYQGLEHRGSEASPALPGLKLSADQVALVYSDKTHTCPPCPAPEAEGAPSVFLFPPKPKDTLMISRTPEVTCVVVDVSHEDPEVKFNWYVDGVEVHNAKTKPREEQYNSTYRVVSVLTVLHQDWLNGKEYKCKVSNKALPSSIEKTISKAKGQPREPQVYTLPPSRDELTKNQVSLTCLVKGFYPSDIAVEWESNGQPENNYKTTPPVLDSDGSFFLYSKLTVDKSRWQQGNVFSCSVMHEALHNHYTQKSLSLSPGK
# notes: two identical polypeptides
# B4: TACI-6 Fc (Fc fusion)
# chain: GGRSRVDQEERFPQGLWTGVAMRSCPEEQYWDPLLGTCMSCKTICNHQSQRTCAAFCRSLSCRKEQGKFYDHLLRDCISCASICGQHPKQCAYFCENKLRSPVNLPPELRKQRSGEVEDKTHTCPPCPAPEAEGAPSVFLFPPKPKDTLMISRTPEVTCVVVDVSHEDPEVKFNWYVDGVEVHNAKTKPREEQYNSTYRVVSVLTVLHQDWLNGKEYKCKVSNKALPSSIEKTISKAKGQPREPQVYTLPPSRDELTKNQVSLTCLVKGFYPSDIAVEWESNGQPENNYKTTPPVLDSDGSFFLYSKLTVDKSRWQQGNVFSCSVMHEALHNHYTQKSLSLSPGK
# notes: two identical polypeptides
# B5: TACI-3 Fc (Fc fusion)
# chain: SGLGRSRKGGKSRVDQEERFPQGLWTGVAMRSCPEEQYWDPLLGTCMSCKTICNHQSQRTCAAFCRSLSCRKEQGKFYDHLLRDCISCASICGQHPKQCAYFCENKLRSPVNLPPELRKQRSGEVEDKTHTCPPCPAPEAEGAPSVFLFPPKPKDTLMISRTPEVTCVVVDVSHEDPEVKFNWYVDGVEVHNAKTKPREEQYNSTYRVVSVLTVLHQDWLNGKEYKCKVSNKALPSSIEKTISKAKGQPREPQVYTLPPSRDELTKNQVSLTCLVKGFYPSDIAVEWESNGQPENNYKTTPPVLDSDGSFFLYSKLTVDKSRWQQGNVFSCSVMHEALHNHYTQKSLSLSPGK
# notes: two identical polypeptides
# B6: TACI-7 Fc (Fc fusion)
# chain: FPQGLWTGVAMRSCPEEQYWDPLLGTCMSCKTICNHQSQRTCAAFCRSLSCRKEQGKFYDHLLRDCISCASICGQHPKQCAYFCENKLRSPVNLPPDKTHTCPPCPAPEAEGAPSVFLFPPKPKDTLMISRTPEVTCVVVDVSHEDPEVKFNWYVDGVEVHNAKTKPREEQYNSTYRVVSVLTVLHQDWLNGKEYKCKVSNKALPSSIEKTISKAKGQPREPQVYTLPPSRDELTKNQVSLTCLVKGFYPSDIAVEWESNGQPENNYKTTPPVLDSDGSFFLYSKLTVDKSRWQQGNVFSCSVMHEALHNHYTQKSLSLSPGK
# notes: two identical polypeptides
# B7: TACI-4 Fc (Fc fusion)
# chain: GGRSRVDQEERFPQGLWTGVAMRSCPEEQYWDPLLGTCMSCKTICNHQSQRTCAAFCRSLSCRKEQGKFYDHLLRDCISCASICGQHPKQCAYFCENKLRSPVNLPPELRKQRSGEVENNSDNSGKYQGLEHRGSEASPALPGLKLSADQVALVYSDKTHTCPPCPAPEAEGAPSVFLFPPKPKDTLMISRTPEVTCVVVDVSHEDPEVKFNWYVDGVEVHNAKTKPREEQYNSTYRVVSVLTVLHQDWLNGKEYKCKVSNKALPSSIEKTISKAKGQPREPQVYTLPPSRDELTKNQVSLTCLVKGFYPSDIAVEWESNGQPENNYKTTPPVLDSDGSFFLYSKLTVDKSRWQQGNVFSCSVMHEALHNHYTQKSLSLSPGK
# notes: two identical polypeptides
# B8: TACI-5 Fc (Fc fusion)
# chain: GGRSRVDQEERFPQGLWTGVAMRSCPEEQYWDPLLGTCMSCKTICNHQSQRTCAAFCRSLSCRKEQGKFYDHLLRDCISCASICGQHPKQCAYFCENKLRSPVNLPPELRKQRSGEVENNSDNSGDKTHTCPPCPAPEAEGAPSVFLFPPKPKDTLMISRTPEVTCVVVDVSHEDPEVKFNWYVDGVEVHNAKTKPREEQYNSTYRVVSVLTVLHQDWLNGKEYKCKVSNKALPSSIEKTISKAKGQPREPQVYTLPPSRDELTKNQVSLTCLVKGFYPSDIAVEWESNGQPENNYKTTPPVLDSDGSFFLYSKLTVDKSRWQQGNVFSCSVMHEALHNHYTQKSLSLSPGK
# notes: two identical polypeptides
# B9: TACI-9-1Fc (Fc fusion)
# chain: STSCRKEQGKFYDHLLRDCISCASICGQHPKQCAYFCENKLDKTHTCPPCPAPEAEGAPSVFLFPPKPKDTLMISRTPEVTCVVVDVSHEDPEVKFNWYVDGVEVHNAKTKPREEQYNSTYRVVSVLTVLHQDWLNGKEYKCKVSNKALPSSIEKTISKAKGQPREPQVYTLPPSRDELTKNQVSLTCLVKGFYPSDIAVEWESNGQPENNYKTTPPVLDSDGSFFLYSKLTVDKSRWQQGNVFSCSVMHEALHNHYTQKSLSLSPGK
# notes: two identical polypeptides
# B10: TACI-9-9Fc (Fc fusion)
# chain: B9 chain with T2R, D18T, Y35R
# notes: two identical polypeptides
# B11: TACI-9-6Fc (Fc fusion)
# chain: B9 chain with T2R, D18T
# notes: two identical polypeptides
# B12: TACI-9-4Fc (Fc fusion)
# chain: B9 chain with T2L, K6Q
# notes: two identical polypeptides
# B13: TACI-9-5Fc (Fc fusion)
# chain: B9 chain with T2L, K10E
# notes: two identical polypeptides
# B14: TACI-9-3Fc (Fc fusion)
# chain: B9 chain with T2L, K6E
# notes: two identical polypeptides
# B15: TACI-9-12Fc (Fc fusion)
# chain: B9 chain with Y35A
# notes: two identical polypeptides
# B16: TACI-9-7Fc (Fc fusion)
# chain: B9 chain with T2R, D18A
# notes: two identical polypeptides
# B17: TACI-9-2Fc (Fc fusion)
# chain: B9 chain with T2L, R5S
# notes: two identical polypeptides
# B18: TACI-9-8Fc (Fc fusion)
# chain: B9 chain with T2L, Y35A
# notes: two identical polypeptides
# B19: TACI-9-11Fc (Fc fusion)
# chain: B9 chain with T2L, R5S, K6E, K10E
# notes: two identical polypeptides
# Target: T1, human BAFF (10056-HNCH, Sino biological) (human, UniProt Q9Y275 134-285)
# T1 construct: Bought protein
# Test: competition ELISA: biotin-labeled BAFF to coated BAFF-R
# Experimental: The blocking activity of the antibodies and the fusion proteins for receptors and ligands such as BAFF/BAFF-R, BAFF/BCMA, BAFF/TACI, APRIL/BCMA, APRIL/TACI, and p40/IL-12R1 was assayed by the ELISA method. The specific procedures were as follows:
# A receptor protein was diluted to 2 μg/mL with PBS at pH 7.4 (BasalMedia, B320) and added to a 96-well microplate (Corning, 3590) at 100 μL/well. The plate was incubated at 4° C. overnight. After the liquid was discarded, 200 μL of 1% Casein blocking solution (Thermo, 37528) was added to each well for blocking, and the plate was incubated at 37° C. for 2 h. After the blocking was completed, the blocking solution was discarded, and the plate was washed 3 times with a PBST buffer (PBS at pH 7.4 containing 0.1% tween-20) for later use. A biotin-labeled ligand protein at a fixed concentration was mixed with the antibody or fusion protein diluted in gradient, pre-incubated at 37° C. for 30 min, and added to a blocked microplate. The plate was incubated at 37° C. for 1.5 h. After the incubation was completed, the plate was washed 3 times with PBST. 100 μL of streptavidin-HRP (Invitrogen, 434323, diluted at a ratio of 1:4000) was added to each well, and the plate was incubated at 37° C. for 1 h. The supernatant was removed, and the plate was washed 3 times with PBST. 100 μL of TMB chromogenic substrate (KPL, 5120-0077) was added to each well, and the plate was incubated at room temperature for 10-15 min. The reaction was stopped by adding 50 μL of 1 M H₂SO₄ to each well. The plate was read for absorbance values at 450 nm on a microplate reader, the curves for the inhibition of the binding of the ligands to the receptors were fitted with software, and the IC₅₀ values were calculated.
row,IC50,Binder
1,22.5 nM,B1
2,42.9 nM,B2
3,44.7 nM,B3
4,18.5 nM,B4
5,826 nM,B5
6,27.9 nM,B6
7,33.5 nM,B7
8,25.4 nM,B8

# Target: T1, human BAFF (10056-HNCH, Sino biological)
# Test: ELISA, BAFF coated, fusion protein titrated
# Experimental: The binding activity of the antibodies or fusion proteins for BAFF, APRIL, and IL-12/23 p40 was assayed by the ELISA method (coating an antigen protein). The specific procedures were as follows:
# A BAFF (Sino biological, 10056-HNCH), APRIL (R&D Systems, 5860-AP-010/CF), or IL-12/23 p40 (Sino biological, 10052-H08H) protein was diluted to 1 μg/mL with a PBS (BasalMedia, B320) buffer at pH 7.4, and added to a 96-well microplate (Corning, 3590) at 100 μL/well. The plate was incubated at 4° C. overnight. After the liquid was discarded, 300 μL of 5% skim milk (BD, 232100) diluted with PBS was added to each well for blocking, and the plate was incubated at 37° C. for 2 h. After the blocking was completed, the blocking solution was discarded, and the plate was washed 3 times with a PBST buffer (PBS at pH 7.4 containing 0.1% tween-20). 100 μL of test antibody or fusion protein solution diluted in a gradient was added to each well, and the plate was incubated at 37° C. for 1 h. After the incubation was completed, the plate was washed 3 times with PBST. […] The plate was washed 3 times with PBST. 100 μL of TMB chromogenic substrate (KPL, 5120-0077) was added to each well, and the plate was incubated at room temperature for 10-15 min. The reaction was stopped by adding 50 μL of 1 M H₂SO₄ to each well. The plate was read for absorbance values at 450 nm on a microplate reader, the binding curves of the antibodies to an antigen were fitted with software, and the EC₅₀ values were calculated.
row,EC50,Binder
1,0.382 nM,B9
2,0.937 nM,B10
3,0.367 nM,B11
4,0.469 nM,B12
5,0.146 nM,B13
6,0.265 nM,B14
7,0.122 nM,B15
8,0.727 nM,B16
9,0.279 nM,B17
10,0.2 nM,B18
11,0.195 nM,B19
